27 molecules from patent US20230303680A1 (UNIVERSIT T Z RICH, published 2023) can be followed below.

Where a chain is given by its changes, count along the chain named. In names and notes the source's numbering stands.

T1: mouse IL-2 (mouse, UniProt P04351 21-169)
T1 sequence (looked up): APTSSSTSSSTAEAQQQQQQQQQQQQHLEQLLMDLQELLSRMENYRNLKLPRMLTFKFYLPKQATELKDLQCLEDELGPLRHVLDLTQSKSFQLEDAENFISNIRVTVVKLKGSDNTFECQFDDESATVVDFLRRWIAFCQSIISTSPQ

B1: UFKA-22-10 (antibody, human IgG1, V domains shown)
VH: EVQLVESGGGLVKPGGSLRLSCAASGFSFSNYAMSWVRQAPGKGLEWVSLISGGGSYSYYPDSLKGRFTISRDSAKNSLYLQMSSLRAEDTAVYYCARHMGYNDYLAWFAYWGQGTLVTVSS
VL: DIVMTQSPDSLAVSLGERATINCKSSQSLLNSANQKNYLAWYQQKPGQPPKLLIYFASTRESGVPDRFIGSGSGTDFTLTISSLQAEDVAVYYCQQYYSAPPWTFGGGTKVEIK
B2: UFKA-22-03 (antibody, human IgG1, V domains shown)
VH: B1 VH
VL: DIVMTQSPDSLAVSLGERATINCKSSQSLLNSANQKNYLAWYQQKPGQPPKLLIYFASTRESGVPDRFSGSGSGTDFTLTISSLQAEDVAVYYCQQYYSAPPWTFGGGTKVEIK
B3: UFKA-22-07 (antibody, human IgG1, V domains shown)
VH: B1 VH with S74N, S84N
VL: B1 VL
B4: UFKA-22-09 (antibody, human IgG1, V domains shown)
VH: B1 VH with S74N
VL: B1 VL
B5: UFKA-22-02 (antibody, human IgG1, V domains shown)
VH: B1 VH with S74N
VL: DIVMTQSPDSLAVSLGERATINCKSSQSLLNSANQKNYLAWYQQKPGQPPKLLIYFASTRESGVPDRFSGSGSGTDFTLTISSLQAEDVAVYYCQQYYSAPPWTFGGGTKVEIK
B6: UFKA-22-08 (antibody, human IgG1, V domains shown)
VH: B1 VH with S84N
VL: B1 VL
B7: UFKA-22-14 (antibody, human IgG1, V domains shown)
VH: B1 VH with S74N, S84N, S122A
VL: B1 VL
B8: UFKA-22-12 (antibody, human IgG1, V domains shown)
VH: B1 VH with S74N, V93M
VL: B1 VL
B9: UFKA-22-13 (antibody, human IgG1, V domains shown)
VH: B1 VH with V93M
VL: B1 VL
B10: UFKA-22-01 (antibody, human IgG1, V domains shown)
VH: B1 VH with S84N
VL: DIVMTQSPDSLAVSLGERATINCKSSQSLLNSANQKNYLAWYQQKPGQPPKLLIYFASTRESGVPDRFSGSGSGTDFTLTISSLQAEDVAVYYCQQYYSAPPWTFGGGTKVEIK
B11: UFKA-22-05 (antibody, human IgG1, V domains shown)
VH: B1 VH with S74N, V93M
VL: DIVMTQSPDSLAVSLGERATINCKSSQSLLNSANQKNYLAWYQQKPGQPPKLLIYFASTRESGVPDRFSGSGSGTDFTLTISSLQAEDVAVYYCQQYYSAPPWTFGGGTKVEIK
B12: UFKA-22-04 (antibody, human IgG1, V domains shown)
VH: B1 VH with S84N, V93M
VL: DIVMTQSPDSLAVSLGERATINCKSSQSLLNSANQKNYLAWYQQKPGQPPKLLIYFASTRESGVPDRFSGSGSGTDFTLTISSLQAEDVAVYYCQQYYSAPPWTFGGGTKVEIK
B13: UFKA-22-06 (antibody, human IgG1, V domains shown)
VH: B1 VH with V93M
VL: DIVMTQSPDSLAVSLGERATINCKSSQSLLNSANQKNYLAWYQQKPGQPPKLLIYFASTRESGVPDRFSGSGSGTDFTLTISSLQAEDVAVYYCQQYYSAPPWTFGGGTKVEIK
B14: UFKA-22-11 (antibody, human IgG1, V domains shown)
VH: B1 VH with S84N, V93M
VL: B1 VL
B15: UFKA-22-00 (humanized UFKA-20) (antibody, human IgG1, kappa, N297A, V domains shown)
VH: B1 VH with S74N, S84N
VL: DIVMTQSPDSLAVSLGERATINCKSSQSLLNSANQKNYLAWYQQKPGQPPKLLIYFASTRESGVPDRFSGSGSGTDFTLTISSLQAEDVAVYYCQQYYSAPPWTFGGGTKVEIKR
notes: Human IgG1 with N297A
B16: F5111 (anti-human IL-2 mAb) (antibody, V domains shown)
VH: QLQLQESGPGLVKPSQTLSLTCTVSGGSISSGGYYWSWIRQHPGKGLEWIGYIYYSGSTYYNPSLKSRVTISVDTSKNQFSLKLSSVTAADTAVYYCARTPTVTGDWFDPWGRGTLVTVSS
VL: NFMLTQPHSVSESPGKTVTISCTRSSGSIASNYVQWYQQRPGSSPTTVIYEDNQRPSGVPDRFSGSIDSSSNSASLTISGLKTEDEADYYCQSYDSSNVVFGGGTKLTVL
B17: JES6-1 (anti-mouse IL-2 mAb) (antibody, V domains shown)
VH: EIQLQQSGPELRRPGSSVKLSCKASGYNITDYLIHWVRHRPEHGLEWIGWIDPEDGETRYAQKFQSKATLTADTSSNAAYMQLSSLTPEDTATYFCARSLDSTYIYPFAYWGQGTLVTVSS
VL: DIVMTQSPFSLAVSEGEMVTINCKSSQSLLSSGNQKNYLAWYQQKPGQSPKLLIYYASTGQSGVPDRFIGSGSGTDFTLTISDVQAEDLADYYCLQHYISPPTFGAGTKLELK
B18: UFKA-20 (mouse anti-human IL-2 monoclonal antibody) (antibody, V domains shown)
VH: B1 VH with Q3M, R19K, A40T, G42E, K43R, G44R, S49A, K76R, A88S, V93M
VL: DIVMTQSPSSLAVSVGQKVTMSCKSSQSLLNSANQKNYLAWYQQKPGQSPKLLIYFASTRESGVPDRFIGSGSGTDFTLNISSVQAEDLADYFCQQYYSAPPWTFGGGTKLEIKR
notes: Full mouse heavy and light chains; also called UFKA-20-00; 1+6
B19: 4 + 10 (antibody, V domains shown)
VH: EVMLVESGGGLVKPGGSLKLSCAASGFSFSNYAMSWVRQTPERRLEWVALISGGGRYSYYPDSLKGRFTISRDSARNSLYLQMSSLRSEDTAMYYCARHMGHNDYLAWFAYWGQGTLVTVSS
VL: DIVMTQSPSSLAVSVGQKVTMSCKSSQSLLNVSNQRNYLAWYQQKPGQSPKLLIYFASTRESGVPDRFIGSGSGTDFTLNISSVQAEDLADYFCQQYYSCPPWTFGGGTKLEIKR
notes: UFKA-20 variant; also called UFKA-20 variant 4+10; vH chain 4, vL chain 10; copies: 2 + 2
B20: 105 + 9 (antibody, V domains shown)
VH: B19 VH with R56S, H102Y, Y105A
VL: B19 VL with V32S, S33A, F56W, C100A
notes: UFKA-20 variant; also called UFKA-20 variant 105+9; vH chain 105, vL chain 9; copies: 2 + 2
B21: 103 + 9 (antibody, V domains shown)
VH: B19 VH with R56S, H102Y, N103A
VL: B19 VL with V32S, S33A, F56W, C100A
notes: UFKA-20 variant; copies: 2 + 2
B22: 103 + 6 (antibody, V domains shown)
VH: B19 VH with R56S, H102Y, N103A
VL: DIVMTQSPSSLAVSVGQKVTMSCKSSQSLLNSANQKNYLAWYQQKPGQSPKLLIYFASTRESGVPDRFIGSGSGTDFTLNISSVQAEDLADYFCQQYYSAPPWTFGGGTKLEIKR
notes: as for B21
B23: 105 + 6 (antibody, V domains shown)
VH: B19 VH with R56S, H102Y, Y105A
VL: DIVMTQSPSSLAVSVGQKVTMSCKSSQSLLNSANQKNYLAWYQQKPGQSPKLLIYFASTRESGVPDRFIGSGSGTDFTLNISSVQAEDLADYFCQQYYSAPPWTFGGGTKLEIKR
notes: UFKA-20 variant; also called UFKA-20 variant 105+6; vH chain 105, vL chain 6; copies: 2 + 2
B24: 4 + 9 (antibody, V domains shown)
VH: B19 VH
VL: B19 VL with V32S, S33A, F56W, C100A
notes: UFKA-20 variant; also called UFKA-20 variant 4+9; vH chain 4, vL chain 9; copies: 2 + 2
B25: NARA1 (anti-human IL-2 mAb, CD122-biasing) (antibody, V domains shown)
VH: QVQLQQSGAELVRPGTSVKVSCKASGYAFTNYLIEWVKQRPGQGLEWIGVINPGSGGTNYNEKFKGKATLTADKSSSTAYMQLSSLTSDDSAVYFCARWRGDGYYAYFDVWGAGTTVTVSS
VL: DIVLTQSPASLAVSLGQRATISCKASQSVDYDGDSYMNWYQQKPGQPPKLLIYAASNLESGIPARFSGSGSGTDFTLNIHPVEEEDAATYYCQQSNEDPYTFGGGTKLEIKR
B26: UFKA-20 variant 2+9 (antibody, V domains shown)
VH: B19 VH with H102K
VL: B19 VL with V32S, S33A, F56W, C100A
B27: UFKA-20 variant 5+9 (antibody, V domains shown)
VH: B19 VH with M100L
VL: B19 VL with V32S, S33A, F56W, C100A

T2 sequence (P60568 21-153 limits assumed): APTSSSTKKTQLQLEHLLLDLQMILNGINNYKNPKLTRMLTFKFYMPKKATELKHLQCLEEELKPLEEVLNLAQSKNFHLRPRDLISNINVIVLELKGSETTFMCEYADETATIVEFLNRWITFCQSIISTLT

The first experiment has as its target T2, human interleukin-2 (recombinant human IL-2, teceleukin) (human, UniProt P60568 21-153).
T2 construct: also called hIL-2; rhIL-2
The experiment in a line: SPR.
As for B1, the Kd came out at 5.16 nM, the koff amounted to 0.00283 s⁻¹ and the kon was determined as 548000 M⁻¹ s⁻¹.
Regarding B2, the Kd was found to be 4.73 nM, the koff worked out at 0.00279 s⁻¹ and the kon came to 590000 M⁻¹ s⁻¹.
Consider B3, for which the Kd is 5.17 nM, the koff was determined as 0.00251 s⁻¹ and the kon was found to be 486000 M⁻¹ s⁻¹.
In the case of B4, the Kd amounted to 5.27 nM, the koff turned out to be 0.00246 s⁻¹ and the association rate constant (kon) turned out to be 466000 M⁻¹ s⁻¹.
For B5, the Kd is 5.51 nM, the koff was found to be 0.00227 s⁻¹ and the kon was determined as 412000 M⁻¹ s⁻¹.
Turning to B6, the Kd was found to be 5.33 nM, the koff was determined as 0.00275 s⁻¹ and the kon turned out to be 515000 M⁻¹ s⁻¹.
Regarding B7, the Kd stood at 4.3 nM, the koff was 0.0024 s⁻¹ and the kon came out at 560000 M⁻¹ s⁻¹.
As for B8, the Kd worked out at 5.05 nM, the koff was determined as 0.0024 s⁻¹ and the kon was 474000 M⁻¹ s⁻¹.
The like results for B9 were, in that order, 4.56 nM, 0.00277 s⁻¹ and 607000 M⁻¹ s⁻¹.
Take B10: the dissociation constant Kd amounted to 5.31 nM, the koff turned out to be 0.00252 s⁻¹ and the kon is 475000 M⁻¹ s⁻¹.
For B11 the same measures were 4.86 nM, 0.0022 s⁻¹ and 452000 M⁻¹ s⁻¹.
On to B12, for which the Kd was 5.03 nM, the dissociation rate constant (koff) was determined as 0.00241 s⁻¹ and the kon worked out at 479000 M⁻¹ s⁻¹.
Regarding B13, the Kd is 4.45 nM, the koff stood at 0.00252 s⁻¹ and the association rate constant (kon) came to 567000 M⁻¹ s⁻¹.
As for B14, the Kd is 5.31 nM, the off-rate constant (koff) turned out to be 0.00275 s⁻¹ and the kon stood at 517000 M⁻¹ s⁻¹.
On to B15, for which the Kd came out at 5.13 nM, the koff was 0.00239 s⁻¹ and the kon was found to be 466000 M⁻¹ s⁻¹.

The target of a further experiment is T2, human interleukin-2 (recombinant human …). Put plainly: SPR (Table 1).
As for B16, the Kd was found to be 1.88 nM, the koff is 0.00711 s⁻¹ and the kon worked out at 3.78e+06 M⁻¹ s⁻¹.

A further experiment addresses T1, mouse IL-2. The experiment in a line: SPR (Table 1).
As to B17, the Kd amounted to 5.6 nM.

Another experiment has as its target T2, human interleukin-2 (recombinant human …). The experiment in a line: SPR. This is another data set of the same source. The method, then: (§1) Chip surface was regenerated after every cycle using glycine buffer pH 1.5. Measurements were acquired at 20° C. and analysed on a Biacore T100 (GE Healthcare).
Regarding B3, the Kd amounted to 5.17 nM, the koff worked out at 0.00251 s⁻¹ and the kon was 486000 M⁻¹ s⁻¹.
In the case of B5, the Kd came to 5.51 nM, the koff worked out at 0.00227 s⁻¹ and the kon turned out to be 412000 M⁻¹ s⁻¹.
With B15, the Kd is 5.13 nM, the koff stood at 0.00239 s⁻¹ and the kon was determined as 466000 M⁻¹ s⁻¹.

For the next experiment the target is unchanged. Put plainly: single-cycle surface plasmon resonance (SPR).
Turning to B18, the Kd is 0.788 nM.
Turning to B19, the Kd turned out to be 33.6 nM.
On to B20, for which the Kd amounted to 0.271 nM.
Take B21: the Kd came out at 2.7 nM.
The same measure, in the same setting: in the case of B22 it was 2.09 nM.
Consider B23, for which the Kd came out at 0.429 nM.
With B24, the Kd amounted to 1.02 nM.

For the next experiment the target is unchanged. Put plainly: SPR, mAb immobilized, IL-2 injected. The procedure:
as §1
As to B18, the Kd amounted to 2.3 nM, the koff turned out to be 0.000391 s⁻¹ and the kon turned out to be 257000 M⁻¹ s⁻¹.
Take B25: the Kd was found to be 4.2 nM, the koff is 0.000117 s⁻¹ and the kon was found to be 30000 M⁻¹ s⁻¹.

Another experiment shares this target. The experiment in a line: single-cycle SPR.
Turning to B26, the Kd was 64 nM.
For B27, the Kd came to 0.186 nM.
